Measurements published in patent US20130058934A1.

molecular target: human LRP6 (human) (UniProt O75581); assay: not given
Sequence (O75581 20-1613): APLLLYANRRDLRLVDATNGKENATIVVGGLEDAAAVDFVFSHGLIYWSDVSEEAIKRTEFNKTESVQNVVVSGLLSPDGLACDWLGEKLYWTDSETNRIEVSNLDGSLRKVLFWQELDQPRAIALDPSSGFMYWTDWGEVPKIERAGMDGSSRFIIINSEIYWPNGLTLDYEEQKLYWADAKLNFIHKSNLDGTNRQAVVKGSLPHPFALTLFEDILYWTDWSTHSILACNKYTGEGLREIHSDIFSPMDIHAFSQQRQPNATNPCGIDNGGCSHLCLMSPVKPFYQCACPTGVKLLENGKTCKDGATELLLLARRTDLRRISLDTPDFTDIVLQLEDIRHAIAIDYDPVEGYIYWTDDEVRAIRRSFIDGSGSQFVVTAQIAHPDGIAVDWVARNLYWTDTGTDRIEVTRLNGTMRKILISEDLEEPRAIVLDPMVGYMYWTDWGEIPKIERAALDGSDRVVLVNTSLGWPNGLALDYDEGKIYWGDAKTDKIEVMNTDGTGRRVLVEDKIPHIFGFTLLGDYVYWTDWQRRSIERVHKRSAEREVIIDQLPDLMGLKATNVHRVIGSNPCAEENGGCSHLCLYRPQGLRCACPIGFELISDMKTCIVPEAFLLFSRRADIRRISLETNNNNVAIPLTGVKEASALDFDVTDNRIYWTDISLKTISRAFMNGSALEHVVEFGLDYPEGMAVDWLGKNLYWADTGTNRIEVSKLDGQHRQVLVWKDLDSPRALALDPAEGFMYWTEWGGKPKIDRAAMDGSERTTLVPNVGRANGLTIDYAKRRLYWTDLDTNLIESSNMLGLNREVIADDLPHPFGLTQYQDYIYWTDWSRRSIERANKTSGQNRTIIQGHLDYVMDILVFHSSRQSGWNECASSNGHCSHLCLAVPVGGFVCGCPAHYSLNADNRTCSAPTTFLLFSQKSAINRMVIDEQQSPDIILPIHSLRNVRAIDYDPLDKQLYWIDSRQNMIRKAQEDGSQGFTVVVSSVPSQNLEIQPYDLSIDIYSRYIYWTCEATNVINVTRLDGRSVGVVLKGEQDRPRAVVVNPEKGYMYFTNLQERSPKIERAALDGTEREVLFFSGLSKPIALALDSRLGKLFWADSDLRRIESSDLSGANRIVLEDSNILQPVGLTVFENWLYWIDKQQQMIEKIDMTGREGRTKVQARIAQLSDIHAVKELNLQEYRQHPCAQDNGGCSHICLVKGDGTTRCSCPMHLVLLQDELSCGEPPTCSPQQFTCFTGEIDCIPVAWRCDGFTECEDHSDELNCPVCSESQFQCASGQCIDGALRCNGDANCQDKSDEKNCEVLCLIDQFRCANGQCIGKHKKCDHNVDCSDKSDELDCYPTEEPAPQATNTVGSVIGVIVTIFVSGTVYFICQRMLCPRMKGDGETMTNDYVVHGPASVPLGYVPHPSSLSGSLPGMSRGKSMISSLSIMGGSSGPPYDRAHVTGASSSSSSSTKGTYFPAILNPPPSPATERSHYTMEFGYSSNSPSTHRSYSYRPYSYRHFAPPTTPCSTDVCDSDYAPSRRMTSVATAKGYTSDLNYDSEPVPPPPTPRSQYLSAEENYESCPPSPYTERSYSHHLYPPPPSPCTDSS

IC50 by STF assay for Wnt1 inhibition | Binder
4.81 nM | scFv08168-D7 (scFv, part only; not given: Linker and His tag, V domains shown, not shown: another chain or arm of the molecule; small tags and cut ends) VH: QVQLVESGGGLVQPGGSLRLSCAASGFTFSDYVMNWVRQAPGKGLEWVSGISWSGVNTHYADSVKGRFTISRDNSKNTLYLQMNSLRAEDTAVYYCARLGATANNIRYKFMDVWGQGTLVTVSS VL: DIELTQPPSVSVAPGQTARITCSGDSLRNKVYWYQQKPGQAPVLVIYKNNRPSGIPERFSGSNSGNTATLTISGTQAEDEADYYCQSYDGQKSLVFGGGTKLTVL
0.74 nM | scFv08168-D6 (scFv, part only; not given: Linker and His tag, V domains shown, not shown: another chain or arm of the molecule; small tags and cut ends) VH: QVQLVESGGGLVQPGGSLRLSCAASGFTFSDYVMNWVRQAPGKGLEWISGISWSGVNTHYADSVKGRFTISRDNSKNTLYLQMNSLRAEDTAVYYCARLGATANNIRYKFMDVWGQGTLVTVSS VL: DIELTQPPSVSVAPGQTARISCSGDSLRNKVYWYQQKPGQAPVLVIYKNNRPSGIPERFSGSNSGNTATLTISGTQAEDEADYYCQSYDGQKSLVFGGGTKLTVL
11.1 nM | scFv08168-D9 (scFv, part only; not given: Linker and His tag, V domains shown, not shown: another chain or arm of the molecule; small tags and cut ends) VH: QVQLVESGGGLVQPGGSLRLSCAASGFTFSDYVMNWVRQAPGKGLEWVSGISWSGVNTHYADSVKGRFTISRDNSKNTLYLQMNSLRAEDTAVYYCARLGATANNIRYKFMDVWGQGTLVTVSS VL: DIELTQPPSVSVAPGQTARISCSGDSLRNKVYWYQQKPGQAPVLVIYKNNRPSGIPERFSVSNSGNTATLTISGTQAEDEADYYCQSYDGQKSLVFGGGTKLTVL

molecular target: cynomolgus LRP6 (cynomolgus); assay: FACS on HEK293T/17 cells transiently transfected with cynomolgus LRP6

EC50 | Binder
0.46 nM | MOR06706 Fab (Fab, V domains shown) VH: QVQLVESGGGLVQPGGSLRLSCAASGFTFSDYAIHWVRQAPGKGLEWVSGISYSGSSTHYADSVKGRFTISRDNSKNTLYLQMNSLRAEDTAVYYCARGSHGNIMAKRYFDFWGQGTLVTVSS VL: DIELTQPPSVSVAPGQTARISCSGDNIRKKYVYWYQQKPGQAPVLVIYEDSKRPSGIPERFSGSNSGNTATLTISGTQAEDEADYYCSTADSGINNGVFGGGTKLTVL
0.22 nM | MOR06475 Fab (Fab, V domains shown) VH: QVQLKESGPALVKPTQTLTLTCTFSGFSLSNRGGGVGWIRQPPGKALEWLAWIDWDDDKSYSTSLKTRLTISKDTSKNQVVLTMTNMDPVDTATYYCARMHLPLVFDSWGQGTLVTVSS VL: DIVLTQSPATLSLSPGERATLSCRASQFIGSRYLAWYQQKPGQAPRLLIYGASNRATGVPARFSGSGSGTDFTLTISSLEPEDFATYYCQQYYDYPQTFGQGTKVEIK
0.88 nM | MOR08168 Fab (Fab, V domains shown) VH: QVQLVESGGGLVQPGGSLRLSCAASGFTFSDYVINWVRQAPGKGLEWVSGISWSGVNTHYADSVKGRFTISRDNSKNTLYLQMNSLRAEDTAVYYCARLGATANNIRYKFMDVWGQGTLVTVSS VL: DIELTQPPSVSVAPGQTARISCSGDSLRNKVYWYQQKPGQAPVLVIYKNNRPSGIPERFSGSNSGNTATLTISGTQAEDEADYYCQSYDGQKSLVFGGGTKLTVL
0.3 nM | MOR08545 Fab (Fab, V domains shown) VH: QVQLVESGGGLVQPGGSLRLSCAASGFTFSVNGMHWVRQAPGKGLEWVSVIDGMGHTYYADSVKGRFTISRDNSKNTLYLQMNSLRAEDTAVYYCARYDYIKYGAFDPWGQGTLVTVSS VL: DIELTQPPSVSVAPGQTARISCSGDNIGSKYVHWYQQKPGQAPVLVIYGDSNRPSGIPERFSGSNSGNTATLTISGTQAEDEADYYCTRTSTPISGVFGGGTKLTVLG
